Measured values reported in article PMC5526994 (Nature Communications, 2017).

B1: Bdp1SANT, human Bdp1 extended SANT domain (residues 241-396), affinity tag removed for crystallization (domain or fragment, UniProt A6H8Y1 241-396, looked up)
chain: GPLLVPRVKVAEDGSIILDEESLTVEVLRTKGPCVVEENDPIFERGSTTTYSSFRKNYYSKPWSNKETDMFFLAISMVGTDFSMIGQLFPHRARIEIKNKFKREEKTNGWRIDKAFQEKRPFDFDFFAHLLQKVLAEEEKRKQKSVKNHSLKEKKS
notes: Bdp1, human, extended SANT domain, residues 241-396; residues 286-382 are built in the electron density; Cloned into pOPINF (cleavable N-terminal His-tag); tag removed with 3C protease for crystallization; source: E. coli BL21-CodonPlus (DE3)-RIL, purified (Ni-NTA, 3C cleavage, heparin, SEC); not shown: His tag, N-terminal, cleaved
B2: TBP (159-339) (domain or fragment, human, UniProt P20226 159-339, looked up)
chain: SGIVPQLQNIVSTVNLGCKLDLKTIALRARNAEYNPKRFAAVIMRIREPRTTALIFSSGKMVCTGAKSEEQSRLAARKYARVVQKLGFPAKFLDFKIQNMVGSCDVKFPIRLEGLVLTHQQFSSYEPELFPGLIYRMIKPRIVLLIFVSGKVVLTGAKVRAEIYEAFENIYPILKGFRKTT
notes: source: E. coli Rosetta (DE3)pLysS, purified (HisTrap, heparin, 3C cleavage, SEC)
B3: Bdp1SANT, human Bdp1 extended SANT domain (residues 241-396), His-tagged (domain or fragment, UniProt A6H8Y1 241-396, looked up)
chain: B1 chain
notes: Bdp1, human, extended SANT domain, residues 241-396; The tag is kept in the pull-down (held on His SpinTrap); it tells of cleavage only for crystallization; source: E. coli BL21-CodonPlus (DE3)-RIL, purified (Ni-NTA, heparin, SEC); not shown: His tag, N-terminal, kept
B4: U6 promoter crystallization DNA (dsDNA)
DNA 1: TTGAAGGGCTTAAAATAGGTGTGAC
DNA 2: GGTCACACCTATTTTAAGCCCTTCAAC
B5: U6_2 TATA EMSA probe (dsDNA)
DNA 1: ATTTGATTGAAGGGCTTAAAATAGGTGTGACAGTAACC
DNA 2: GGTTACTGTCACACCTATTTTAAGCCCTTCAATCAAAT
B6: U6 snRNA promoter smFRET DNA (dsDNA)
DNA 1: CGGACCAAGATGATTTGATTGAAGGGCTTAAAATAGGTGTGAGAGTAACCCTTGA
DNA 2: TCAAGGGTTACTCTCACACCTATTTTAAGCCCTTCAATCAAATCATCTTGGTCCG
B7: U6_2 PSE probe (dsDNA)
DNA 1: CCATAAGTTATCCTAACCAAAAGATGATTTGA
DNA 2: TCAAATCATCTTTTGGTTAGGATAACTTATGG

Assays:
[1] = target: T1, Brf2 (62-419) (human, UniProt Q9HAW0 62-419); assay: crystal structure; Brf2 (62-419), TBP (159-339) and Bdp1SANT with 25 bp of the human U6 promoter; complex at 60 uM, equimolar TBP and Brf2, 1.1 molar excess of Bdp1SANT, 1.2 excess of dsDNA; hanging drop, PEG 8000, KCl, MES pH 6.5, MgCl2; 2.7 Å; details: both partners purified
T1 construct: Brf2 (TFIIB-related factor II), human, residues 62-419; also called TFIIB-related factor II; source: E. coli Rosetta (DE3)pLysS, co-expressed with TBP, purified in isolation (HisTrap, heparin, 3C cleavage, SEC); not shown: His tag, N-terminal, cleaved
T1 sequence (Q9HAW0 62-419): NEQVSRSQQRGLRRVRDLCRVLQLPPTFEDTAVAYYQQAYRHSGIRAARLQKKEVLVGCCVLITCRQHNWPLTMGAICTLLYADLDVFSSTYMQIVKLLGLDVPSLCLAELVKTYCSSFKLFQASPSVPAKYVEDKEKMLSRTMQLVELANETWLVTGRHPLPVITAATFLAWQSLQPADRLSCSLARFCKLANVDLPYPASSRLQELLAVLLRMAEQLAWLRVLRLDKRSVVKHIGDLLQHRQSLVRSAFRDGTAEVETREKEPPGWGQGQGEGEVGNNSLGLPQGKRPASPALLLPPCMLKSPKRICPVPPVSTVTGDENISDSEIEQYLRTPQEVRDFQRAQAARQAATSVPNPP

[2] = target: B2; assay: as above; details: both partners purified
[3] = target: T2, Brf2–TBP complex on U6 promoter DNA (Brf2–TBP–DNA complex) (human, UniProt Q9HAW0 62-419; P20226 159-339); assay: as above; details: both partners purified
T2 construct: Brf2 (TFIIB-related factor II), human, residues 62-419; The complex stands on double-stranded U6 promoter DNA in every experiment (Cy5-labelled U6_2 38-mer in EMSA; 25 bp fragment with overhangs in the crystal); Bdp1 also contacts the DNA; also called TBP–Brf2; source: E. coli Rosetta (DE3)pLysS, each protein purified, assembled with double-stranded U6 promoter DNA; not shown: His tag, …
T2 sequence (Q9HAW0 62-419, one chain of several): as the sequence (Q9HAW0 62-419) above

[4] = target: T2, Brf2–TBP complex on U6 promoter DNA …; assay: native gel or EMSA; 1.5 pmol Cy5-labelled U6_2 dsDNA, 5 pmol TBP (159-339), 7 pmol Brf2 (62-419), 10 pmol Bdp1 construct in 20 ul; 500 mM ammonium acetate, 50 mM HEPES pH 7.9, 10% glycerol, 1 mM TCEP; 21 °C, 20 min; 4.5% polyacrylamide gel; details: both partners purified
[5] = target: T3, TBP (core);Brf2 (62-419);Bdp1SANT (Homo sapiens;Homo sapiens;Homo sapiens, UniProt P20226;Q9HAW0;A6H8Y1 159-339;62-419;241-396, ||); assay: X-ray crystallography; 2.7 A; EMSA: 500 mM ammonium acetate, 50 mM HEPES pH 7.9, 10% glycerol, 1 mM TCEP, 21 °C 20 min, diluted twofold (100 mM ammonium acetate, 40% glycerol) before loading; SNAPc EMSA: 500 mM NaCl, 50 mM HEPES pH 7.9, 20% glycerol, 1 mM TCEP, 21 °C; smFRET lifetimes: T78 buffer, 1 mM DTT, room temperature; details: protein: recombinant;recombinant;recombinant; tags: His-tag cleaved (3C);N-terminal His-tag cleaved (3C);N-terminal His, cleavable; cleaved for crystallization; copies: 1;1;1; 25 bp; template strand S1 has 1 nt 5' and 1 nt 3' overhang
T3 sequence (Q9HAW0 62-419, one chain of several): as the sequence (Q9HAW0 62-419) above

[6] = target: T4, TBP (core);Brf2 (62-419) (Homo sapiens;Homo sapiens, UniProt P20226;Q9HAW0 159-339;62-419, |); assay: competition; 0-200x unlabelled same-sequence DNA; less stable than with Bdp1SANT; EMSA: 500 mM ammonium acetate, 50 mM HEPES pH 7.9, 10% glycerol, 1 mM TCEP, 21 °C 20 min, diluted twofold (100 mM ammonium acetate, 40% glycerol) before loading; SNAPc EMSA: 500 mM NaCl, 50 mM HEPES pH 7.9, 20% glycerol, 1 mM TCEP, 21 °C; smFRET lifetimes: T78 buffer, 1 mM DTT, room temperature; details: protein: recombinant;recombinant; tags: His-tag cleaved (3C);N-terminal His-tag cleaved (3C); copies: 1;1; label: 5' Cy5 on strand 1; blunt
T4 sequence (Q9HAW0 62-419, one chain of several): as the sequence (Q9HAW0 62-419) above

[7] = target: T3, TBP (core);Brf2 (62-419);Bdp1SANT; assay: EMSA; similar affinity to longer Bdp1 constructs; EMSA: 500 mM ammonium acetate, 50 mM HEPES pH 7.9, 10% glycerol, 1 mM TCEP, 21 °C 20 min, diluted twofold (100 mM ammonium acetate, 40% glycerol) before loading; SNAPc EMSA: 500 mM NaCl, 50 mM HEPES pH 7.9, 20% glycerol, 1 mM TCEP, 21 °C; smFRET lifetimes: T78 buffer, 1 mM DTT, room temperature; details: protein: recombinant;recombinant;recombinant; tags: His-tag cleaved (3C);N-terminal His-tag cleaved (3C);N-terminal His, cleavable; cleaved for crystallization; copies: 1;1;1; label: 5' Cy5 on strand 1; blunt
[8] = target: T4, TBP (core);Brf2 (62-419); assay: smFRET; complex lifetime 381 ± 33 s (heparin trap); EMSA: 500 mM ammonium acetate, 50 mM HEPES pH 7.9, 10% glycerol, 1 mM TCEP, 21 °C 20 min, diluted twofold (100 mM ammonium acetate, 40% glycerol) before loading; SNAPc EMSA: 500 mM NaCl, 50 mM HEPES pH 7.9, 20% glycerol, 1 mM TCEP, 21 °C; smFRET lifetimes: T78 buffer, 1 mM DTT, room temperature; details: protein: recombinant;recombinant; tags: His-tag cleaved (3C);N-terminal His-tag cleaved (3C); copies: 1;1; label: internal ATTO 532 donor and ATTO 647N acceptor; immobilized in TIRF assay; blunt
[9] = target: TBP (core) (Homo sapiens, UniProt P20226 159-339); assay: smFRET; 10 nM TBP; complex lifetime 0.29 s; EMSA: 500 mM ammonium acetate, 50 mM HEPES pH 7.9, 10% glycerol, 1 mM TCEP, 21 °C 20 min, diluted twofold (100 mM ammonium acetate, 40% glycerol) before loading; SNAPc EMSA: 500 mM NaCl, 50 mM HEPES pH 7.9, 20% glycerol, 1 mM TCEP, 21 °C; smFRET lifetimes: T78 buffer, 1 mM DTT, room temperature; details: protein: recombinant; tags: His-tag cleaved (3C); label: internal ATTO 532 donor and ATTO 647N acceptor; immobilized in TIRF assay; blunt
[10] = target: T3, TBP (core);Brf2 (62-419);Bdp1SANT; assay: smFRET; complex lifetime 547 ± 87 s (heparin trap); EMSA: 500 mM ammonium acetate, 50 mM HEPES pH 7.9, 10% glycerol, 1 mM TCEP, 21 °C 20 min, diluted twofold (100 mM ammonium acetate, 40% glycerol) before loading; SNAPc EMSA: 500 mM NaCl, 50 mM HEPES pH 7.9, 20% glycerol, 1 mM TCEP, 21 °C; smFRET lifetimes: T78 buffer, 1 mM DTT, room temperature; details: protein: recombinant;recombinant;recombinant; tags: His-tag cleaved (3C);N-terminal His-tag cleaved (3C);N-terminal His, cleavable; cleaved for crystallization; copies: 1;1;1; label: internal ATTO 532 donor and ATTO 647N acceptor; immobilized in TIRF assay; blunt
[11] = target: SNAPcΔ;Bdp1SANT (Homo sapiens?;Homo sapiens, UniProt Q5SXM2;Q92966;Q16533;O75971;A6H8Y1 1-516;1-411;1-368;1-98;241-396, |); assay: EMSA; Bdp1SANT not recruited to SNAPc-DNA; not loss of SNAPc-DNA binding; EMSA: 500 mM ammonium acetate, 50 mM HEPES pH 7.9, 10% glycerol, 1 mM TCEP, 21 °C 20 min, diluted twofold (100 mM ammonium acetate, 40% glycerol) before loading; SNAPc EMSA: 500 mM NaCl, 50 mM HEPES pH 7.9, 20% glycerol, 1 mM TCEP, 21 °C; smFRET lifetimes: T78 buffer, 1 mM DTT, room temperature; details: protein: recombinant;recombinant; tags: N-terminal Strep on SNAPc190Δ; His cleaved from SNAPc50;N-terminal His, cleavable; cleaved for crystallization; copies: 1;1;1;1;1; blunt
Sequence of SNAPcΔ;Bdp1SANT (Q5SXM2 1-516, stated change not applied, chain 1 of 4): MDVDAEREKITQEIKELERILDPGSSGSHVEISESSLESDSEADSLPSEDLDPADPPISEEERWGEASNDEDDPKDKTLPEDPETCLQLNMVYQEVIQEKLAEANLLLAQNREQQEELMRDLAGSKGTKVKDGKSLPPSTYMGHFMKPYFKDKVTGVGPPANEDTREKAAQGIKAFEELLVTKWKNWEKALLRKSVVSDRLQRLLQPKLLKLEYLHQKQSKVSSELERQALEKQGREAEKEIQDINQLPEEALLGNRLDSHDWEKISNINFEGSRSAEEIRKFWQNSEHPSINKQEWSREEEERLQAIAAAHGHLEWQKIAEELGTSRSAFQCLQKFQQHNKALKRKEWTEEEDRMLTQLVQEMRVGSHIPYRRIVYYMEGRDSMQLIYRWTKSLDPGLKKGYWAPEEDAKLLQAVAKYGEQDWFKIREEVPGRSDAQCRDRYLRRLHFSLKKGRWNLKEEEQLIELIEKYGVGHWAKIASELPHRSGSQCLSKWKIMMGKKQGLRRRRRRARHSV
Sequence of SNAPcΔ;Bdp1SANT (Q92966 whole entry, stated change not applied, chain 2 of 4): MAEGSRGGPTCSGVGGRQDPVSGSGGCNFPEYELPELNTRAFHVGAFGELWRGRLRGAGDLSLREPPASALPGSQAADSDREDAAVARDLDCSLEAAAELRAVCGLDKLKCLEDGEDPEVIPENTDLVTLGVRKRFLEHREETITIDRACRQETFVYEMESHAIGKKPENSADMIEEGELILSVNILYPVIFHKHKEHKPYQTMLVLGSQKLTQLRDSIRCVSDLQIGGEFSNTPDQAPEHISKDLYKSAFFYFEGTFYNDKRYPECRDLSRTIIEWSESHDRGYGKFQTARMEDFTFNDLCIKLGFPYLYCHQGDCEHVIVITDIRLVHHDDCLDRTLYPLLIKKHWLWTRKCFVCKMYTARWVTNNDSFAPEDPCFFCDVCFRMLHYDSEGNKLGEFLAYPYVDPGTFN
Sequence of SNAPcΔ;Bdp1SANT (Q16533 whole entry, stated change not applied, chain 3 of 4): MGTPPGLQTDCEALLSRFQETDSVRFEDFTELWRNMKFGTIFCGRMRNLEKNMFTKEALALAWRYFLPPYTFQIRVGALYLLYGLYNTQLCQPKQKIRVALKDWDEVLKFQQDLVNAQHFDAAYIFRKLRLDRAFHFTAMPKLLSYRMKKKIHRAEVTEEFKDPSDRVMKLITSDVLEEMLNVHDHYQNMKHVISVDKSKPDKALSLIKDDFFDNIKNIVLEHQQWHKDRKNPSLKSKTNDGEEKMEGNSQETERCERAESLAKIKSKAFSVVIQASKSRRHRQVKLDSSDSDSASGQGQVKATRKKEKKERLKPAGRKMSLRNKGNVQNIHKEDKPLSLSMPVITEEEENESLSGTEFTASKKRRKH
Sequence of SNAPcΔ;Bdp1SANT (O75971 whole entry, stated change not applied, chain 4 of 4): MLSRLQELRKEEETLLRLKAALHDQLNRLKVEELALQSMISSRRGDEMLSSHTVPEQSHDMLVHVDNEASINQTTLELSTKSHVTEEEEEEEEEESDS

[12] = target: SNAPcΔ;Bdp1-WT (Homo sapiens?;Homo sapiens, UniProt Q5SXM2;Q92966;Q16533;O75971;A6H8Y1 1-516;1-411;1-368;1-98;1-484, |); assay: EMSA; Bdp1 binding to SNAPc-DNA; EMSA: 500 mM ammonium acetate, 50 mM HEPES pH 7.9, 10% glycerol, 1 mM TCEP, 21 °C 20 min, diluted twofold (100 mM ammonium acetate, 40% glycerol) before loading; SNAPc EMSA: 500 mM NaCl, 50 mM HEPES pH 7.9, 20% glycerol, 1 mM TCEP, 21 °C; smFRET lifetimes: T78 buffer, 1 mM DTT, room temperature; details: protein: recombinant;recombinant; tags: N-terminal Strep on SNAPc190Δ; His cleaved from SNAPc50;C-terminal His (uncleavable); copies: 1;1;1;1;1; blunt

## B1
[1]
  binding result: binds
[2]
  binding result: binds
[3]
  binding result: binds

## B2
[1]
  binding result: binds

## B3
[4]
  binding result: binds

## B4
[5]
  binding result: binds

## B5
[6]
  binding result: binds
[7]
  binding result: binds

## B6
[8]
  binding result: binds
[9]
  binding result: binds
[10]
  binding result: binds

## B7
[11]
  binding result: no binding
[12]
  binding result: binds
